The values that follow are results of earlier work, collected in PMC5336612, “Therapeutic effects of different doses of polyethylene glycosylated porcine glucagon-like peptide-2 on ulcerative colitis in male rats” (BMC Gastroenterology, 2017).

Read-outs that look alike come from different tables or passages of the source.

The conditions of data set [1]: rat, in vivo; cited from earlier work.
The conditions of data set [2]: in vivo, cited from earlier work.
The conditions of data set [3]: in vivo; cited from earlier work.
On the set-up of data set [4]: method as in PMID 19773525. The note with it: patient; cited from earlier work.

Turning to “HGDGSFSDEMNTVLDNLATRDFINWLLHTKITDSL [p[Gly^2]GLP-2, Porcine [Gly^2] GLP-2]”, in data set [1], the half-life (commonly the time in which the quantity being followed falls by half) is 49 min. As for “PEG(2 k)-Lys-GLP-1: PEGylated glucagon-like peptide-1 of Lee et al.”, the results for the half-life increase in data set [2] (iv) and in data set [2] (sc) were 16 fold and 3.2 fold, respectively. “porcine glucagon-like peptide-2 (HADGSFSDEMNTVLDNLATRDFINWLLHTKITDSL; Glucagon-like peptide 2; UniProt P01274 146-180, looked up) [pGLP-2]”: the “half-life of intact pGLP-2” value in data set [3] is 8.4 min.

As for teduglutide, in data set [4], the t1/2 is reported as 2.99 h.
